The values that follow come from US20230303695A1 (SHANGHAI XBH BIOTECHNOLOGY, published 2023).

B1: KIR3DL2 expressed on cells (receptor, human, UniProt P43630 22-455, looked up)
chain: LMGGQDKPFLSARPSTVVPRGGHVALQCHYRRGFNNFMLYKEDRSHVPIFHGRIFQESFIMGPVTPAHAGTYRCRGSRPHSLTGWSAPSNPLVIMVTGNHRKPSLLAHPGPLLKSGETVILQCWSDVMFEHFFLHREGISEDPSRLVGQIHDGVSKANFSIGPLMPVLAGTYRCYGSVPHSPYQLSAPSDPLDIVITGLYEKPSLSAQPGPTVQAGENVTLSCSSWSSYDIYHLSREGEAHERRLRAVPKVNRTFQADFPLGPATHGGTYRCFGSFRALPCVWSNSSDPLLVSVTGNPSSSWPSPTEPSSKSGICRHLHVLIGTSVVIFLFILLLFFLLYRWCSNKKNAAVMDQEPAGDRTVNRQDSDEQDPQEVTYAQLDHCVFIQRKISRPSQRPKTPLTDTSVYTELPNAEPRSKVVSCPRAPQSGLEGVF
notes: whole, on cells; on CT26 cells (vector with thy1.1 tag)

Assay [1] addresses T1, recombinant human IGSF8 extracellular domain tagged by a human Fc region (IGSF8-hFc) (human, UniProt Q969P0 28-579, biotin label in Examples 17, 18 and 28 (site not given)).
T1 construct: also called IGSF8-Fc fusion protein; IGSF8-hFc-biotin; not shown: human Fc region
T1 sequence: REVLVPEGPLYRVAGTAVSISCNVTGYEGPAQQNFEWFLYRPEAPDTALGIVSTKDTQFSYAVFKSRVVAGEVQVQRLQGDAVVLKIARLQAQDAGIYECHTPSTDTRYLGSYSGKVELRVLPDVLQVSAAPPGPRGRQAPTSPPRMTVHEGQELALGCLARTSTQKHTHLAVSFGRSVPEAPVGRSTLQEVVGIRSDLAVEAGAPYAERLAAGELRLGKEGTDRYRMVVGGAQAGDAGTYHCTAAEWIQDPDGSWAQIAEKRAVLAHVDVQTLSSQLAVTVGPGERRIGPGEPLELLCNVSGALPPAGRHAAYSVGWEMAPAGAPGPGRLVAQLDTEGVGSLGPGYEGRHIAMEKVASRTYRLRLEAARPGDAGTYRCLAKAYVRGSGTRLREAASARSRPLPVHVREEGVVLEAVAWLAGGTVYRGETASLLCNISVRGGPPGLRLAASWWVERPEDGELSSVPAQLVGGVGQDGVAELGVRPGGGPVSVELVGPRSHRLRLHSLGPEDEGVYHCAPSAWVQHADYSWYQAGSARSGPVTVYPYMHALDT
Kind of assay: FACS, biotin-labelled IGSF8-hFc on CT26 cells expressing the KIR, MFI normalized to Thy1.1. The protocol: For this experiment, different human KIR receptors (KIR2DL1, KIR2DL2, KIR2DL3, KIR2DL4, KIR2DL5A, KIR2DL5B, KIR3DL1, KIR3DL2, KIR3DL3) were first cloned into a proprietary lentiviral vector containing a thy1.1 tag (FIG. 17A). Then mouse CT26 cells, were transducted by these lentiviral constructs, and IGSF8 binding was tested with biotin-labelled recombinant IGSF8 hFc fusion protein. The mean fluorescence intensity (MFI) of IGSF8 binding to different CT26 cells were normalized by the expression of different KIRs on CT26 cells using an anti-thy1.1 mAb (Biolegend) via flow cytometry.
(§1) KLRC1 also contains a ITIM motif in its intracellular domain, and was known to be a inhibitory receptor of NK or CD8⁺ T cells as part of a heterodimer with KLRD1 on the cell surface. […] Specifically, 100,000 CT26 cells overexpressing the antigens (KIRs or KLRs) were washed with PBS buffer containing 2% FBS, and incubated with 100 μL IGSF8 recombinant proteins or antibodies (5 μg/mL) for 30 minutes on ice. Cells were then washed twice with wash buffer, and incubated with 100 μL of 1:100 anti-human Fc-PE antibody for 15 minutes on ice. Cells were washed twice with wash buffer and analyzed on a FACS analyzer (CytoFlex, Beckman). In these experiments, the mean fluorescence intensity (MFI) of IGSF8 binding to different CT26 cells were normalized by the expression of different KLRs on CT26 cells using an anti-thy1.1 mAb via flow cytometry.

The target in assay [2] is T2, human IGSF8 expressed on the cell surface (human, UniProt Q969P0 28-613).
T2 construct: whole, on cells; also called human IGSF8 on CT26 cells; IGSF8 on MC38 cells
T2 sequence (looked up): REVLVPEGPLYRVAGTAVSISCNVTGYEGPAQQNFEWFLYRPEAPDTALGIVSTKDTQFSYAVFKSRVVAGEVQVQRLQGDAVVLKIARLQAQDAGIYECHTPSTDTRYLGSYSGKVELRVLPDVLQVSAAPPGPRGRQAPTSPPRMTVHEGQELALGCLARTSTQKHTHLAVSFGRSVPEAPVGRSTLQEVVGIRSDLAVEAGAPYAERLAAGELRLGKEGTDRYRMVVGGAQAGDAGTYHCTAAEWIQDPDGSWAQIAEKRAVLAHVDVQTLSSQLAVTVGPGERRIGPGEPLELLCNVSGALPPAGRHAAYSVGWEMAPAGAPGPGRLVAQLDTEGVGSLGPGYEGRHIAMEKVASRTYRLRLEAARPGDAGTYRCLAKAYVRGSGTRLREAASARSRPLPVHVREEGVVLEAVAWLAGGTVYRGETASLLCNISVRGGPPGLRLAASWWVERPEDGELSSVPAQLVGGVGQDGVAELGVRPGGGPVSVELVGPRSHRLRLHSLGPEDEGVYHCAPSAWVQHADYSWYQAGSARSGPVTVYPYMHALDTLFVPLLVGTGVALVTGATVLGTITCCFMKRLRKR
Kind of assay: FACS cell-cell conjugate assay, CFSE-labelled MC38-IGSF8 mixed 1:1 with Far Red-labelled CT26-KIR3DL2. The method, then: FIG. 23A is a diagram of two embodiments of an antibody blocking assay. In the left panel, CT26 cells expressing ligand IGSF8 are treated with soluble and biotin labelled receptor (KIR3DL1/2) and anti-IGSF8 mAbs, and subsequently, bound receptor is detected with PE-streptavidin. In the right panel, MC38 cells expressing the IGSF8 ligand are contacted with KLR- or KIR-receptor-expressing CT26 cells, and anti-IGSF8 antibodies capable of blocking MC38-CT26 cell/cell conjugates will reduce the formation of the FACS-detectable conjugate.
A competition assay (FIG. 23A) was then designed to test whether these seven mAbs block IGSF8 binding to the KIR3DL1/2 or the KLRC1&D1 heterodimer receptors. MC38 cells (a cell line derived from C57BL6 murine colon adenocarcinoma cells from NIH) with forced expression of IGSF8 protein on cell surface by lentiviral delivery of a human IGSF8-expression construct were labeled with CFSE (Carboxyfluorescein succinimidyl ester, Thermo). CT26 cells with forced expression of either KIR3DL1/2 or KLRC1&D1 were labeled with CellTrace Far Red (Thermo). The MC38 cells were then mixed at a 1:1 ratio with the CT26 cells for about an hour at room temperature. The formation of MC38 and CT26 cell/cell conjugates was assessed by flow cytometry.

Assay [3] concerns the target B1. Kind of assay: FACS, hFc-tagged proteins on CT26 cells expressing the receptor, MFI normalized to Thy1.1. The method, then:
as §1
For orientation: Flow cytometry measures light scatter and fluorescence of single cells or particles in a stream.

B1: the binding result in assay [1] and in assay [2] was “binds” each time.

B2: IGSF8 protein without D1 domain (ligand, human, UniProt Q969P0 150-579, looked up)
chain: PDVLQVSAAPPGPRGRQAPTSPPRMTVHEGQELALGCLARTSTQKHTHLAVSFGRSVPEAPVGRSTLQEVVGIRSDLAVEAGAPYAERLAAGELRLGKEGTDRYRMVVGGAQAGDAGTYHCTAAEWIQDPDGSWAQIAEKRAVLAHVDVQTLSSQLAVTVGPGERRIGPGEPLELLCNVSGALPPAGRHAAYSVGWEMAPAGAPGPGRLVAQLDTEGVGSLGPGYEGRHIAMEKVASRTYRLRLEAARPGDAGTYRCLAKAYVRGSGTRLREAASARSRPLPVHVREEGVVLEAVAWLAGGTVYRGETASLLCNISVRGGPPGLRLAASWWVERPEDGELSSVPAQLVGGVGQDGVAELGVRPGGGPVSVELVGPRSHRLRLHSLGPEDEGVYHCAPSAWVQHADYSWYQAGSARSGPVTVYPYMHALDT
notes: domain: D2-4; also called D24; D2-4
For B2, the binding result in assay [3] was “no binding”.
